57 variants from the RNAGym collection of RNA variant scans (doi:10.7554/elife.80360) can be followed below.

To fix the notation:
B1: Hammerhead Ribozyme (parent)
chain: ACCGGAUGUGCUUUCCGGUCUGAUGAGUCCGUGAGGACGAAACAG

The variants in this data set derive from B1. Briefly: self-cleavage, relative activity (ratio to wild type); higher = more cleavage; co-transcriptional.
Turning to ACCGGAUGUGCUUCCCGGUGUGAUGAGUCCGUGAGGACGAAACAG, the self-cleavage was 0.301.

For ACCGGAUGUGCUUUCCGGUCUGAGGAGUCCGUGAGGACGAAACUG, the self-cleavage was 0.608.

For the variant ACCGGAUGUGCUUUCCGGUCUGAUGAGUCCGUGAGGACGUAACUG, the self-cleavage came out at 0.336.

For the variant ACCGGAUGUGCUUUCCGGUCUGAUGACUCCGCGAGGACGAAACAG, the self-cleavage amounted to 1.01.

In the case of ACCGGAUGAGCUUGCCGGUCUGAUGAGUCCGUGAGGACGAAACAG, the self-cleavage was 1.

On to ACCCGAUGUGAUUUCCGGUCUGAUGAGUCCGUGAGGACGAAACAG, for which the self-cleavage worked out at 0.67.

In the case of ACCGGAUGUGCUUUCGGGUCUGAUGAGUCCGUUAGGACGAAACAG, the self-cleavage is 1.09.

ACCGGAUGUGCUUUCCGGUCUGAUGAGUACGUGCGGACGAAACAG: the self-cleavage was determined as 0.494.

In the case of AGCGGAUGUGCUUUCCGGUCUGAUGAGUCCGUGAGGAAGAAACAG, the self-cleavage amounted to 0.336.

Regarding ACCGGAUGUGCUUUCCGGGCUGAUGAGUCCGUGAGGACGAAAUAG, the self-cleavage came to 0.336.

As to ACCGUAUGUGCUUUCCGGUCUGAUGAGUCCGUGAGGACGAAACAC, the self-cleavage worked out at 0.443.

With ACCGGCUGUGCUUUCCGGUCUGAUGAGUCCCUGAGGACGAAACAG, the self-cleavage came to 0.573.

For the variant ACCGGAUGUGCUUUCCGGUCUGAAGAGUCCGUGAGGACGACACAG, the self-cleavage was 0.371.

For ACCGAAUCUGCUUUCCGGUCUGAUGAGUCCGUGAGGACGAAACAG, the self-cleavage was determined as 0.954.

As to ACCGGAUGUGCUUGCCGGUCUGAUGAGUCCGUGAGGACGAAACAU, the self-cleavage amounted to 0.776.

For the variant ACCGGAUGUGCUUGCCGGUCUGAUGAGUCCGUGAGGACGAAAAAG, the self-cleavage amounted to 0.304.

ACCGGAUGUGCUUUACGGUCUGAUGAGUCCGGGAGGACGAAACAG: the self-cleavage was determined as 0.769.

Take ACCGGAUGUGCUUUCCGGUCUGAUGAGUGCGUGAUGACGAAACAG: the self-cleavage was determined as 0.665.

Consider ACCGGAUGUGCUUUCCGGUCUGAUGAGGACGUGAGGACGAAACAG, for which the self-cleavage came out at 0.878.

With ACCGAAUGUGCUGUCCGGUCUGAUGAGUCCGUGAGGACGAAACAG, the self-cleavage turned out to be 1.72.

As to ACCGGAUGUGCUUUCCCGUCUGAUGAGUCCGUGAGGACGAAACCG, the self-cleavage came to 0.418.

Regarding AGCGGAUGUGCUUUCCGGUCUGAUGAGCCCGUGAGGACGAAACAG, the self-cleavage turned out to be 0.262.

ACCUGAUGUGCUUUCCGGUGUGAUGAGUCCGUGAGGACGAAACAG: the self-cleavage was found to be 0.272.

In the case of ACCGGAUGUGCUUUCCGGUCUGCUGAGUCCGUGAGGACGUAACAG, the self-cleavage came to 0.243.

Turning to ACCGGAUGUGCUUCCCGAUCUGAUGAGUCCGUGAGGACGAAACAG, the self-cleavage amounted to 0.409.

On to ACCGGAUGUGCUUUCCGGUCUGAUGUGUCCGUGCGGACGAAACAG, for which the self-cleavage was determined as 0.355.

On to ACCGGAUGUGCUUUCCGUUCUGAUGAGUCCGUGAGGAAGAAACAG, for which the self-cleavage stood at 0.527.

Take ACCGGAUGUGCUUUCCGGUGUGAUGAGUCCGUGAGGACAAAACAG: the self-cleavage was 0.34.

In the case of UCCGGAUGUGCUCUCCGGUCUGAUGAGUCCGUGAGGACGAAACAG, the self-cleavage was 0.94.

ACCGGAUGUGCUAUCCGGUCUGAUGAGUCCUUGAGGACGAAACAG: the self-cleavage stood at 1.39.

As for ACCGGAUGUGCUUUCCGGUCUGAUGAGUCCGUGAGCACGAGACAG, the self-cleavage is 0.449.

On to ACCGGAUGUGAUUUUCGGUCUGAUGAGUCCGUGAGGACGAAACAG, for which the self-cleavage stood at 1.01.

As for ACCGGAUGUGCUUUCCGGUCUGGUGAGUCCGUGAGGACGAAUCAG, the self-cleavage worked out at 0.335.

ACCGGAUGUGUUUUCCGGUCUGAUGAGUCCGUGAGGACGAAACUG: the self-cleavage came out at 0.497.

On to ACCGGAUGUGCUUUCGGGUCUGAUCAGUCCGUGAGGACGAAACAG, for which the self-cleavage stood at 0.285.

Regarding ACCGGAUGUGCGUUCCGGUCUGAGGAGUCCGUGAGGACGAAACAG, the self-cleavage turned out to be 0.795.

Consider ACCGGAUGUGCUUUCCGGUCAGAUGAGUCCGUGAGGGCGAAACAG, for which the self-cleavage was determined as 0.365.

For ACCGGAUGUGCUUUCCGGUCAGAUGAGUCCGUGAGGUCGAAACAG, the self-cleavage was 0.502.

For ACCGGAUGUGCUUUCCUGUCUGAUGAGUCCGUCAGGACGAAACAG, the self-cleavage turned out to be 0.851.

With ACCGGAUGUGCUUUCCGGUCUGAUGAGUCCCUGAGGAAGAAACAG, the self-cleavage was 0.62.

Take ACCGGAUGUGCUUUCCGGACUAAUGAGUCCGUGAGGACGAAACAG: the self-cleavage came to 0.346.

ACCGGAUCUGCUUUCCGGUCUGAUGAGUUCGUGAGGACGAAACAG: the self-cleavage was determined as 0.758.

On to ACCGGAUGUGCUUUCCGUUCUGAUGAGUCCAUGAGGACGAAACAG, for which the self-cleavage was 0.905.

For GCCGGAUGUGCUUUCCAGUCUGAUGAGUCCGUGAGGACGAAACAG, the self-cleavage was determined as 0.896.

As for ACCGGAUGUGCUUUCCGGUCUGGUGAGUCCGUGAAGACGAAACAG, the self-cleavage was determined as 0.38.

For ACCGGGUGUGCUUUCCGGUCUGAUGAGUCCGUGAGGACGAACCAG, the self-cleavage was 0.268.

For the variant ACCGGAUGUGCUUUCCCGUCUGAUGAGUCCGUGAGGACGAGACAG, the self-cleavage is 0.388.

Regarding ACCGGAUGUGCGUUCCGGUCUGAUCAGUCCGUGAGGACGAAACAG, the self-cleavage amounted to 0.337.

Take CCCGGAUGUGCUUUCCGGUCUGAUGAGUCCGUGAGGAGGAAACAG: the self-cleavage was found to be 0.39.

Turning to ACCGGAUGUGGUUUCCGGUCUGAUGAGUCCGUGCGGACGAAACAG, the self-cleavage turned out to be 0.893.

With ACCGGAUGUACUUUCCGGUCUGAUGUGUCCGUGAGGACGAAACAG, the self-cleavage worked out at 0.925.

Consider ACCGGAUGUGCUUUCUGGUCUGAUGAGUCCGUGAGCACGAAACAG, for which the self-cleavage was found to be 0.375.

In the case of ACCGGAUGUGCUUUCCGGUCUGAUGAGUACGUGAGGACGAAACAC, the self-cleavage stood at 0.388.

As to ACCGGAAGUGCUUUCCGGUCUGAUGAGUCCGUGAGGACGGAACAG, the self-cleavage came out at 0.298.

For ACCGGAUGUGCUUUCCGGUCUGAUCAGUCCGUGAGGACGUAACAG, the self-cleavage was determined as 0.332.

ACAGGAUGUGCUUUCCGGUCUGAUGAGUCCGUAAGGACGAAACAG: the self-cleavage was 0.674.

For ACCGGAUCUGCUUUCCGGUCUGAUGAGGCCGUGAGGACGAAACAG, the self-cleavage came to 1.05.
